± gives the standard deviation of the averaged measurements.
Experiment: total protein half-life in vivo (active degradation + dilution); higher = more stable protein
[1] = E. coli NCM3722 delta-clpP delta-lon delta-hslV, growth: N-lim chemostat, doubling time 6 h
[2] = E. coli NCM3722 delta-clpP, growth: N-lim chemostat, doubling time 6 h
[3] = E. coli NCM3722 delta-hslV, growth: N-lim chemostat, doubling time 6 h
[4] = E. coli NCM3722 delta-lon, growth: N-lim chemostat, doubling time 6 h
[5] = E. coli NCM3722 delta-smpB, growth: N-lim chemostat, doubling time 6 h
[6] = wild type E. coli NCM3722, growth: C-lim chemostat, doubling time 3 h
[7] = wild type E. coli NCM3722, growth: C-lim chemostat, doubling time 6 h
[8] = wild type E. coli NCM3722, growth: C-lim chemostat, doubling time 12 h
[9] = wild type E. coli NCM3722, growth: N-lim chemostat, doubling time 6 h
[10] = wild type E. coli NCM3722, growth: N-lim chemostat, doubling time 12 h
[11] = wild type E. coli NCM3722, growth: P-lim chemostat, doubling time 6 h
[12] = wild type E. coli NCM3722, growth: P-lim chemostat, doubling time 12 h

MTQPLFLIGPRGCGKTTVGMALADSLNRRFVDTDQWLQSQLNMTVAEIVEREEWAGFRARETAALEAVTAPSTVIATGGGIILTEFNRHFMQNNGIVVYLCAPVSVLVNRLQAAPEEDLRPTLTGKPLSEEVQEVLEERDALYREVAHIIIDATNEPSQVISEIRSALAQTINC [P0A6E1]
total protein half-life in vivo [1]: 4.64 ± 0.55 h
total protein half-life in vivo [2]: 5.49 ± 2.4 h
total protein half-life in vivo [3]: 2.62 ± 0.031 h
total protein half-life in vivo [4]: 2.9 ± 0.18 h
total protein half-life in vivo [5]: 2.42 ± 0.11 h
total protein half-life in vivo [6]: 2.43 ± 0.067 h
total protein half-life in vivo [7]: 5.25 ± 0.8 h
total protein half-life in vivo [8]: 7.3 ± 0.53 h
total protein half-life in vivo [9]: 2.59 ± 0.29 h
total protein half-life in vivo [10]: 3.99 ± 0.094 h
total protein half-life in vivo [11]: 3.9 ± 0.047 h
total protein half-life in vivo [12]: 8.17 ± 0.78 h

MTMSLEVFEKLEAKVQQAIDTITLLQMEIEELKEKNNSLSQEVQNAQHQREELERENNHLKEQQNGWQERLQALLGRMEEV [P0AF36]
total protein half-life in vivo [1]: 7.42 ± 0.15 h
total protein half-life in vivo [2]: 5.62 ± 0.36 h
total protein half-life in vivo [3]: 3.23 h
total protein half-life in vivo [4]: 4.06 ± 0.25 h
total protein half-life in vivo [5]: 3.08 ± 0.33 h
total protein half-life in vivo [6]: 2.8 ± 0.15 h
total protein half-life in vivo [7]: 5.01 ± 0.5 h
total protein half-life in vivo [8]: 8.02 ± 1.9 h
total protein half-life in vivo [9]: 2.88 ± 0.047 h
total protein half-life in vivo [10]: 5.13 ± 2.1 h
total protein half-life in vivo [11]: 4.53 h
total protein half-life in vivo [12]: 8.35 ± 0.092 h

MNKHTEHDTREHLLATGEQLCLQRGFTGMGLSELLKTAEVPKGSFYHYFRSKEAFGVAMLERHYAAYHQRLTELLQSGEGNYRDRILAYYQQTLNQFCQHGTISGCLTVKLSAEVCDLSEDMRSAMDKGARGVIALLSQALENGRENHCLTFCGEPLQQAQVLYALWLGANLQAKISRSFEPLENALAHVKNIIATPAV
total protein half-life in vivo [1]: 5.12 h
total protein half-life in vivo [2]: 4.66 ± 0.51 h
total protein half-life in vivo [3]: > 8 h
total protein half-life in vivo [4]: 6.18 h
total protein half-life in vivo [5]: 4.66 ± 0.14 h
total protein half-life in vivo [6]: 3.13 ± 0.15 h
total protein half-life in vivo [7]: 5.91 ± 0.12 h
total protein half-life in vivo [8]: 11.7 h
total protein half-life in vivo [9]: 7.06 h
total protein half-life in vivo [11]: 5.25 h
total protein half-life in vivo [12]: 12.7 h

MLAQLTISNFAIVRELEIDFHSGMTVITGETGAGKSIAIDALGLCLGGRAEADMVRTGAARADLCARFSLKDTPAALRWLEENQLEDGHECLLRRVISSDGRSRGFINGTAVPLSQLRELGQLLIQIHGQHAHQLLTKPEHQKFLLDGYANETSLLQEMTARYQLWHQSCRDLAHHQQLSQERAARAELLQYQLKELNEFNPQPGEFEQIDEEYKRLANSGQLLTTSQNALALMADGEDANLQSQLYTAKQLVSELIGMDSKLSGVLDMLEEATIQIAEASDELRHYCDRLDLDPNRLFELEQRISKQISLARKHHVSPEALPQYYQSLLEEQQQLDDQADSQETLALAVTKHHQQALEIARALHQQRQQYAEELAQLITDSMHALSMPHGQFTIDVKFDEHHLGADGADRIEFRVTTNPGQPMQPIAKVASGGELSRIALAIQVITARKMETPALIFDEVDVGISGPTAAVVGKLLRQLGESTQVMCVTHLPQVAGCGHQHYFVSKETDGAMTETHMQSLNKKARLQELARLLGGSEVTRNTLANAKELLAA
total protein half-life in vivo [1]: 5.03 ± 0.093 h
total protein half-life in vivo [2]: 3.53 ± 0.12 h
total protein half-life in vivo [12]: 2.48 h

MLNIVLYEPEIPPNTGNIIRLCANTGFRLHIIEPMGFAWDDKRLRRAGLDYHEFTAVTRHHDYRAFLEAENPQRLFALTTKGTPAHSAVSYQDGDYLMFGPETRGLPASILDALPAEQKIRIPMVPDSRSMNLSNAVSVVVYEAWRQLGYPGAVLRD [P0AGJ7]
total protein half-life in vivo [1]: 5.27 ± 0.13 h
total protein half-life in vivo [3]: 5.83 ± 0.49 h
total protein half-life in vivo [4]: 5.54 ± 0.16 h
total protein half-life in vivo [5]: 4.82 ± 0.33 h
total protein half-life in vivo [6]: 2.91 ± 0.35 h
total protein half-life in vivo [7]: 6.26 h
total protein half-life in vivo [8]: 13.8 ± 2.8 h
total protein half-life in vivo [9]: 5.23 h
total protein half-life in vivo [10]: 8.21 ± 0.38 h
total protein half-life in vivo [11]: 5.93 ± 0.22 h
total protein half-life in vivo [12]: 11.9 ± 0.24 h

MMVIRPVERSDVSALMQLASKTGGGLTSLPANEATLSARIERAIKTWQGELPKSEQGYVFVLEDSETGTVAGICAIEVAVGLNDPWYNYRVGTLVHASKELNVYNALPTLFLSNDHTGSSELCTLFLDPDWRKEGNGYLLSKSRFMFMAAFRDKFNDKVVAEMRGVIDEHGYSPFWQSLGKRFFSMDFSRADFLCGTGQKAFIAELMPKHPIYTHFLSQEAQDVIGQVHPQTAPARAVLEKEGFRYRNYIDIFDGGPTLECDIDRVRAIRKSRLVEVAEGQPAQGDFPACLVANENYHHFRVVLVRTDPATERLILTAAQLDALKCHAGDRVRLVRLCAEEKTA [P0AE37]
total protein half-life in vivo [1]: 5.43 ± 0.59 h
total protein half-life in vivo [2]: 2.85 ± 0.19 h
total protein half-life in vivo [3]: 2.96 ± 0.92 h
total protein half-life in vivo [4]: 2.88 ± 0.041 h
total protein half-life in vivo [5]: 2.78 ± 0.33 h
total protein half-life in vivo [6]: 2.58 ± 0.12 h
total protein half-life in vivo [7]: 4.56 ± 0.31 h
total protein half-life in vivo [8]: 9.68 ± 2.2 h
total protein half-life in vivo [9]: 2.452 ± 0.0032 h
total protein half-life in vivo [10]: 3.22 ± 0.69 h
total protein half-life in vivo [11]: 4.07 ± 0.25 h
total protein half-life in vivo [12]: 9.08 ± 0.78 h

MSSLPVAAVLPELLTALDCAPQVLLSAPTGAGKSTWLPLQLLAHPGINGKIILLEPRRLAARNVAQRLAELLNEKPGDTVGYRMRAQNCVGPNTRLEVVTEGVLTRMIQRDPELSGVGLVILDEFHERSLQADLALALLLDVQQGLRDDLKLLIMSATLDNDRLQQMLPEAPVVISEGRSFPVERRYLPLPAHQRFDDAVAVATAEMLRQESGSLLLFLPGVGEIQRVQEQLASRIGSDVLLCPLYGALSLNDQRKAILPAPQGMRKVVLATNIAETSLTIEGIRLVVDCAQERVARFDPRTGLTRLITQRVSQASMTQRAGRAGRLEPGISLHLIAKEQAERAAAQSEPEILQSDLSGLLMELLQWGCSDPAQMSWLDQPPVVNLLAAKRLLQMLGALEGERLSAQGQKMAALGNDPRLAAMLVSAKNDDEAATAAKIAAILEEPPRMGNSDLGVAFSRNQPAWQQRSQQLLKRLNVRGGEADSSLIAPLLAGAFADRIARRRGQDGRYQLANGMGAMLDANDALSRHEWLIAPLLLQGSASPDARILLALLVDIDELVQRCPQLVQQSDTVEWDDAQGTLKAWRRLQIGQLTVKVQPLAKPSEDELHQAMLNGIRDKGLSVLNWTAEAEQLRLRLLCAAKWLPEYDWPAVDDESLLAALETWLLPHMTGVHSLRGLKSLDIYQALRGLLDWGMQQRLDSELPAHYTVPTGSRIAIRYHEDNPPALAVRMQEMFGEATNPTIAQGRVPLVLELLSPAQRPLQITRDLSDFWKGAYREVQKEMKGRYPKHVWPDDPANTAPTRRTKKYS
total protein half-life in vivo [1]: 5.57 ± 0.07 h
total protein half-life in vivo [2]: 5.56 ± 0.99 h
total protein half-life in vivo [3]: 3.91 ± 0.046 h
total protein half-life in vivo [4]: 4.29 ± 0.098 h
total protein half-life in vivo [5]: 4.21 ± 0.25 h
total protein half-life in vivo [6]: 2.8 ± 0.11 h
total protein half-life in vivo [7]: 4.648 ± 0.041 h
total protein half-life in vivo [8]: 9.65 ± 3.8 h
total protein half-life in vivo [9]: 3.97 ± 0.26 h
total protein half-life in vivo [10]: 6.433 ± 0.061 h
total protein half-life in vivo [11]: 4.905 ± 0.044 h
total protein half-life in vivo [12]: 9.09 ± 0.45 h

MATTQQSGFAPAASPLASTIVQTPDDAIVAGFTSIPSQGDNMPAYHARPKQSDGPLPVVIVVQEIFGVHEHIRDICRRLALEGYLAIAPELYFREGDPNDFADIPTLLSGLVAKVPDSQVLADLDHVASWASRNGGDVHRLMITGFCWGGRITWLYAAHNPQLKAAVAWYGKLTGDKSLNSPKQPVDIATDLNAPILGLYGGQDNSIPQESVETMRQALRAANAKAEIIVYPDAGHAFNADYRPSYHAASAEDGWQRMLEWFKQYGGKKSL
total protein half-life in vivo [1]: 4.8 ± 0.66 h
total protein half-life in vivo [2]: 3.82 ± 0.21 h
total protein half-life in vivo [3]: 4.01 ± 0.11 h
total protein half-life in vivo [4]: 4.18 ± 0.37 h
total protein half-life in vivo [5]: 3.92 ± 0.051 h
total protein half-life in vivo [6]: 2.59 ± 0.14 h
total protein half-life in vivo [7]: 4.52 ± 0.53 h
total protein half-life in vivo [8]: 8.52 ± 2.4 h
total protein half-life in vivo [9]: 3.85 ± 0.1 h
total protein half-life in vivo [10]: 5.35 ± 1.5 h
total protein half-life in vivo [11]: 4.06 ± 0.17 h
total protein half-life in vivo [12]: 8.35 ± 0.2 h

MSLNFLDFEQPIAELEAKIDSLTAVSRQDEKLDINIDEEVHRLREKSVELTRKIFADLGAWQIAQLARHPQRPYTLDYVRLAFDEFDELAGDRAYADDKAIVGGIARLDGRPVMIIGHQKGRETKEKIRRNFGMPAPEGYRKALRLMQMAERFKMPIITFIDTPGAYPGVGAEERGQSEAIARNLREMSRLGVPVVCTVIGEGGSGGALAIGVGDKVNMLQYSTYSVISPEGCASILWKSADKAPLAAEAMGIIAPRLKELKLIDSIIPEPLGGAHRNPEAMAASLKAQLLADLADLDVLSTEDLKNRRYQRLMSYGYA [P0ABD5]
total protein half-life in vivo [1]: 6.13 ± 0.7 h
total protein half-life in vivo [3]: 6.72 ± 0.71 h
total protein half-life in vivo [4]: 7.18 ± 0.38 h
total protein half-life in vivo [5]: 5.526 ± 0.043 h
total protein half-life in vivo [6]: 3.63 ± 0.15 h
total protein half-life in vivo [7]: 7.76 ± 0.089 h
total protein half-life in vivo [8]: 12.5 ± 0.96 h
total protein half-life in vivo [9]: 6.34 ± 0.58 h
total protein half-life in vivo [10]: 11.4 ± 2.5 h
total protein half-life in vivo [11]: 6.27 ± 0.27 h
total protein half-life in vivo [12]: 13.9 ± 1.9 h

MLILLGYLVVLGTVFGGYLMTGGSLGALYQPAELVIIAGAGIGSFIVGNNGKAIKGTLKALPLLFRRSKYTKAMYMDLLALLYRLMAKSRQMGMFSLERDIENPRESEIFASYPRILADSVMLDFIVDYLRLIISGHMNTFEIEALMDEEIETHESEAEVPANSLALVGDSLPAFGIVAAVMGVVHALGSADRPAAELGALIAHAMVGTFLGILLAYGFISPLATVLRQKSAETSKMMQCVKVTLLSNLNGYAPPIAVEFGRKTLYSSERPSFIELEEHVRAVKNPQQQTTTEEA
total protein half-life in vivo [6]: 1.32 ± 0.061 h
total protein half-life in vivo [7]: 1.57 h
total protein half-life in vivo [8]: 2.1 h

MSKKYIIGIDGGSQSTKVVMYDLEGNVVCEGKGLLQPMHTPDADTAEHPDDDLWASLCFAGHDLMSQFAGNKEDIVGIGLGSIRCCRALLKADGTPAAPLISWQDARVTRPYEHTNPDVAYVTSFSGYLTHRLTGEFKDNIANYFGQWPVDYKSWAWSEDAAVMDKFNIPRHMLFDVQMPGTVLGHITPQAALATHFPAGLPVVCTTSDKPVEALGAGLLDDETAVISLGTYIALMMNGKALPKDPVAYWPIMSSIPQTLLYEGYGIRKGMWTVSWLRDMLGESLIQDARAQDLSPEDLLNKKASCVPPGCNGLMTVLDWLTNPWEPYKRGIMIGFDSSMDYAWIYRSILESVALTLKNNYDNMCNEMNHFAKHVIITGGGSNSDLFMQIFADVFNLPARRNAINGCASLGAAINTAVGLGLYPDYATAVDNMVRVKDIFIPIESNAKRYDAMNKGIFKDLTKHTDVILKKSYEVMHGELGNVDSIQSWSNA
total protein half-life in vivo [1]: 2.5 h
total protein half-life in vivo [6]: 2.855 ± 0.0047 h
total protein half-life in vivo [7]: 4.03 ± 0.54 h
total protein half-life in vivo [8]: 8.14 ± 1.2 h
total protein half-life in vivo [12]: 2.92 h

Source: the supplement of paper PMC11246515
